From patent publication US20140105889A1 (published 2014)
Where a chain is given by its changes, count along the chain named.

T1: human FcγRIIa type H (human, UniProt P12318 36-217)
T1 construct: also called FcgRIIaH; FcγRIIa(H)
T1 sequence: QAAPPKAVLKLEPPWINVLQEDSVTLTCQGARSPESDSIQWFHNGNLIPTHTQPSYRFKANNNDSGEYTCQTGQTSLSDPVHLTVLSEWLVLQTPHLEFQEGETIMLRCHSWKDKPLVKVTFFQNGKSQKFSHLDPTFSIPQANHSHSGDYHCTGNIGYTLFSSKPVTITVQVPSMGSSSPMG

T2: human FcγRIIb (human, UniProt P31994 43-217, limits assumed)
T2 construct: also called FcgRIIb; FcγIIB
T2 sequence: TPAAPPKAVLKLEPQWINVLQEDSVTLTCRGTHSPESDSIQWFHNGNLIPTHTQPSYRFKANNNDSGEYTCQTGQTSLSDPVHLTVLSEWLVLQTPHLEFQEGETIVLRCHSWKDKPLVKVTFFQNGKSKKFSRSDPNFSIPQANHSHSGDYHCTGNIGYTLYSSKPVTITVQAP

T3: human FcγRIIb (human, UniProt P31994 43-217)
T3 construct: also called FcγIIB
T3 sequence: T2 sequence

B1: IL6R-BP198/IL6R-L (antibody, human IgG1)
heavy: QVQLQESGPGLVKPSETLSLTCAVSGHSISHDHAWSWVRQPPGEGLEWIGFISYSGITNYNPSLQGRVTISRDNSKNTLYLQMNSLRAEDTAVYYCARSLARTTAMDYWGEGTLVTVSSASTKGPSVFPLAPSSKSTSGGTAALGCLVKDYFPEPVTVSWNSGALTSGVHTFPAVLQSSGLYSLSSVVTVPSSSLGTQTYICNVNHKPSNTKVDKKVEPKSCDKTHTCPPCPAPDYLGGDSVFLFPPKPKDTLMISRTPEVTCVVVDVSDEDGEVKFNWYVDGVEVHNAKTKPREEQYNSTYRVVSVLTVLHQDWLNGKEYKCKVSNAALPKPIEKTISKAKGQPREPQVYTLPPSRDELTKNQVSLTCLVKGFYPSDIAVEWESNGQPENNYKTTPPVLDSDGSFFLYSKLTVDKSRWQQGNVFSCSVMHEALHNHYTQESLSLSP
light: DIQMTQSPSSLSASVGDRVTITCRASQDISSYLNWYQQKPGKAPKLLIYYTSRLHSGVPSRFSGSGSGTDFTFTISSLQPEDIATYYCQQGNTLPYTFGQGTKVEIK
notes: Anti-human IL-6 receptor human IgG1 variant; copies: 2 + 2
B2: IL6R-BP197/IL6R-L (antibody, human IgG1)
heavy: B1 heavy with G239D, Y298D, A328D
light: B1 light
notes: as for B1
B3: IL6R-BP186/IL6R-L (antibody, human IgG1)
heavy: B1 heavy with G239D, D270H, Y298D
light: B1 light
notes: as for B1
B4: IL6R-BP183/IL6R-L (antibody, human IgG1)
heavy: B1 heavy with D270H
light: B1 light
notes: as for B1
B5: IL6R-BP187/IL6R-L (antibody, human IgG1)
heavy: B1 heavy with D235E, D270H
light: B1 light
notes: as for B1
B6: IL6R-BP188/IL6R-L (antibody, human IgG1)
heavy: B1 heavy with Y236L, G239D, A328K
light: B1 light
notes: as for B1
B7: IL6R-BP195/IL6R-L (antibody, human IgG1)
heavy: B1 heavy with G239D, Y298D
light: B1 light
notes: as for B1
B8: IL6R-BP190/IL6R-L (antibody, human IgG1)
heavy: B1 heavy with D235E, Y236L, G239D, A328K
light: B1 light
notes: as for B1
B9: IL6R-BP191/IL6R-L (antibody, human IgG1)
heavy: B1 heavy with Y236L
light: B1 light
notes: as for B1
B10: IL6R-BP196/IL6R-L (antibody, human IgG1)
heavy: B1 heavy with D235E
light: B1 light
notes: as for B1
B11: IL6R-BP213/IL6R-L (antibody, human IgG1)
heavy: B1 heavy with Y236L, A328K, K332R
light: B1 light
notes: The common L chain is IL6R-L; copies: 2 + 2
B12: IL6R-BP208/IL6R-L (antibody, human IgG1)
heavy: B1 heavy with Y236L, G239D, A328K, K332R
light: B1 light
notes: as for B11
B13: IL6R-BP189/IL6R-L (antibody, human IgG1)
heavy: B1 heavy with D235E, Y236L, G239D
light: B1 light
notes: as for B11
B14: IL6R-BP195/IL6R-L (antibody, human IgG1)
heavy: B1 heavy with G239D, Y298D
light: B1 light
notes: as for B11
B15: IL6R-BP211/IL6R-L (antibody, human IgG1)
heavy: B1 heavy with Y236L, K332R
light: B1 light
notes: as for B11
B16: IL6R-BP203/IL6R-L (antibody, human IgG1)
heavy: B1 heavy with D235E, Y236L, G239D, D270H, A328K, K332R
light: B1 light
notes: as for B11
B17: IL6R-BP209/IL6R-L (antibody, human IgG1)
heavy: B1 heavy with D235E, Y236L, G239D, K332R
light: B1 light
notes: as for B11
B18: IL6R-BP196/IL6R-L (antibody, human IgG1)
heavy: B1 heavy with D235E
light: B1 light
notes: as for B11
B19: IL6R-BP187/IL6R-L (antibody, human IgG1)
heavy: B1 heavy with D235E, D270H
light: B1 light
notes: as for B11
B20: IL6R-BP212/IL6R-L (antibody, human IgG1)
heavy: B1 heavy with Y236L, Y298D, A328K, K332R
light: B1 light
notes: as for B11
B21: IL6R-BP207/IL6R-L (antibody, human IgG1)
heavy: B1 heavy with Y236L, D270H, G273P, A328K, K332R
light: B1 light
notes: as for B11
B22: IL6R-BP198/IL6R-L (antibody, human IgG1)
heavy: B1 heavy
light: B1 light
notes: as for B11
B23: IL6R-BP199/IL6R-L (antibody)
heavy: B1 heavy with Y236L, D270H, G273P, A328D, K332R
light: B1 light
notes: copies: 2 + 2
B24: IL6R-BP194/IL6R-L (antibody, human IgG1)
heavy: B1 heavy with G239D
light: B1 light
notes: as for B11
B25: IL6R-BP206/IL6R-L (antibody, human IgG1)
heavy: B1 heavy with Y236L, D270H, A328K, K332R
light: B1 light
notes: as for B11
B26: IL6R-BP197/IL6R-L (antibody)
heavy: B1 heavy with G239D, Y298D, A328D
light: B1 light
notes: copies: 2 + 2
B27: IL6R-BP192/IL6R-L (antibody, human IgG1)
heavy: B1 heavy with Y236L, Y298D, A328K
light: B1 light
notes: as for B11

Biological target: T4, human FcγRIIIa type V (allotype V158) (human, UniProt P08637 17-208, limits assumed)
T4 construct: the assay used allotype V158; also called FcγRIIIaV; FcγRIIIa(V)
T4 sequence (P08637 other isoform, or with tags, fused parts or gaps limits assumed): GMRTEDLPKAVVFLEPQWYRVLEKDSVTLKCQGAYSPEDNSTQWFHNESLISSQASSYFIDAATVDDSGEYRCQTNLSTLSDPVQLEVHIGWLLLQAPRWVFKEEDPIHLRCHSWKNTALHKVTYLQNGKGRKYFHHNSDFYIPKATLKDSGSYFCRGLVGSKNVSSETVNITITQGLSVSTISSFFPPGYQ
Experiment: SPR (Biacore), antibody captured on the chip, FcγR as analyte

Row | Kd [µM] | Binder
1 | 44 | B1
2 | 33 | B2
3 | 49 | B3
4 | 56 | B4
5 | 56 | B5
6 | 68 | B6
7 | 31 | B7
8 | 45 | B8
9 | 49 | B9
10 | 51 | B10

Biological target: T5, human FcγRIa (human, UniProt P12314 16-292, limits assumed)
T5 construct: also called FcgRIa; CD64
T5 sequence (P12314 16-292 limits assumed): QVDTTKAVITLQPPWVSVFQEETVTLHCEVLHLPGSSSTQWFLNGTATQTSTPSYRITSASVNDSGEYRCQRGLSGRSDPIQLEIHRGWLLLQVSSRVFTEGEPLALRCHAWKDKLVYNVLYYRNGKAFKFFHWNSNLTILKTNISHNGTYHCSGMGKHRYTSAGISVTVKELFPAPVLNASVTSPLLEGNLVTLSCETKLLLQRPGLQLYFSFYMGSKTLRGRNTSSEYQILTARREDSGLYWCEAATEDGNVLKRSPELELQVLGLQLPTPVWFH
Experiment: SPR (Biacore); binding amount divided by that of control IL6R-BF648/IL6R-L, x100
Method: (§1) According to the following method, relative binding activities were calculated for the results of analyzing interactions with the respective FcγRs.

Row | relative binding activity | Binder
11 | 118 % of IL6R-BF648/IL6R-L | B11
12 | 81 % of IL6R-BF648/IL6R-L | B12
13 | 56 % of IL6R-BF648/IL6R-L | B13
14 | 68 % of IL6R-BF648/IL6R-L | B14
15 | 128 % of IL6R-BF648/IL6R-L | B15
16 | 35 % of IL6R-BF648/IL6R-L | B16
17 | 68 % of IL6R-BF648/IL6R-L | B17
18 | 89 % of IL6R-BF648/IL6R-L | B18
19 | 68 % of IL6R-BF648/IL6R-L | B19
20 | 117 % of IL6R-BF648/IL6R-L | B20
21 | 74 % of IL6R-BF648/IL6R-L | B21
22 | 104 % of IL6R-BF648/IL6R-L | B22
23 | 112 % of IL6R-BF648/IL6R-L | B23
24 | 69 % of IL6R-BF648/IL6R-L | B24
25 | 101 % of IL6R-BF648/IL6R-L | B25
26 | 71 % of IL6R-BF648/IL6R-L | B26
27 | 109 % of IL6R-BF648/IL6R-L | B27

Biological target: T1, human FcγRIIa type H
Experiment: as above
Method: as §1

Row | relative binding activity | Binder
28 | 123 % of IL6R-BF648/IL6R-L | B11
29 | 310 % of IL6R-BF648/IL6R-L | B12
30 | 183 % of IL6R-BF648/IL6R-L | B13
31 | 344 % of IL6R-BF648/IL6R-L | B14
32 | 255 % of IL6R-BF648/IL6R-L | B16
33 | 267 % of IL6R-BF648/IL6R-L | B17
34 | 195 % of IL6R-BF648/IL6R-L | B18
35 | 205 % of IL6R-BF648/IL6R-L | B19
36 | 135 % of IL6R-BF648/IL6R-L | B20
37 | 103 % of IL6R-BF648/IL6R-L | B21
38 | 188 % of IL6R-BF648/IL6R-L | B22
39 | 116 % of IL6R-BF648/IL6R-L | B23
40 | 395 % of IL6R-BF648/IL6R-L | B24
41 | 123 % of IL6R-BF648/IL6R-L | B25
42 | 294 % of IL6R-BF648/IL6R-L | B26
43 | 122 % of IL6R-BF648/IL6R-L | B27

Biological target: T2, human FcγRIIb
Experiment: as above
Method: as §1

Row | relative binding activity | Binder
44 | 169 % of IL6R-BF648/IL6R-L | B11
45 | 188 % of IL6R-BF648/IL6R-L | B12
46 | 177 % of IL6R-BF648/IL6R-L | B13
47 | 165 % of IL6R-BF648/IL6R-L | B15
48 | 185 % of IL6R-BF648/IL6R-L | B16
49 | 186 % of IL6R-BF648/IL6R-L | B17
50 | 157 % of IL6R-BF648/IL6R-L | B18
51 | 157 % of IL6R-BF648/IL6R-L | B19
52 | 173 % of IL6R-BF648/IL6R-L | B20
53 | 124 % of IL6R-BF648/IL6R-L | B21
54 | 164 % of IL6R-BF648/IL6R-L | B22
55 | 144 % of IL6R-BF648/IL6R-L | B23
56 | 178 % of IL6R-BF648/IL6R-L | B24
57 | 168 % of IL6R-BF648/IL6R-L | B25
58 | 179 % of IL6R-BF648/IL6R-L | B26
59 | 172 % of IL6R-BF648/IL6R-L | B27

Biological target: T6, human FcγRIIIa type V (human, UniProt P08637 17-208, limits assumed)
T6 construct: The assay used allotype V158; also called FcgRIIIaV; FcγRIIIa(V)
T6 sequence (P08637 other isoform, or with tags, fused parts or gaps limits assumed): as the sequence (P08637 other isoform, or with tags, fused parts or gaps limits assumed) above
Experiment: as above
Method: as §1

Row | relative binding activity | Binder
60 | 100 % of IL6R-BF648/IL6R-L | B11
61 | 118 % of IL6R-BF648/IL6R-L | B12
62 | 141 % of IL6R-BF648/IL6R-L | B13
63 | 221 % of IL6R-BF648/IL6R-L | B14
64 | 87 % of IL6R-BF648/IL6R-L | B15
65 | 88 % of IL6R-BF648/IL6R-L | B16
66 | 153 % of IL6R-BF648/IL6R-L | B17
67 | 137 % of IL6R-BF648/IL6R-L | B18
68 | 124 % of IL6R-BF648/IL6R-L | B19
69 | 122 % of IL6R-BF648/IL6R-L | B20
70 | 97 % of IL6R-BF648/IL6R-L | B21
71 | 157 % of IL6R-BF648/IL6R-L | B22
72 | 103 % of IL6R-BF648/IL6R-L | B23
73 | 249 % of IL6R-BF648/IL6R-L | B24
74 | 92 % of IL6R-BF648/IL6R-L | B25
75 | 206 % of IL6R-BF648/IL6R-L | B26
76 | 118 % of IL6R-BF648/IL6R-L | B27

Biological target: T3, human FcγRIIb
Experiment: SPR (Biacore); KD of parent IL6R-B3/IL6R-L for FcγRIIb divided by KD of the variant for FcγRIIb
From the text: Furthermore, KD(IIaR)/KD(IIb) and KD(IIaH)/KD(IIb) in the table respectively represent the value obtained by dividing the KD value of each variant for FcγRIIaR by the KD value of each variant for FcγRIIb, and the value obtained by dividing the KD value of each variant for FcγRIIaH by the KD value of each variant for FcγRIIb.

Row | KD(IIb) of the parent polypeptide/KD(IIb) of the altered polypeptide | Binder
77 | 15.7 | B1
78 | 53.7 | B2
79 | 50.7 | B3
80 | 12.9 | B4
81 | 1.7 | B5
82 | 87.6 | B6
83 | 82 | B7
84 | 53.2 | B8
85 | 21.2 | B9
86 | 13.9 | B10
